For assay [1], the target named is Human CD26-Fc fusion protein (human). As to the kind of experiment: ELISA screen GH2 (HHJ), table P1-CD26, format CD26/scFv/Etag-HRP.
The target in assay [2] is ProL/A-HRP. As to the kind of experiment: ELISA screen GH2 (HHJ), table P1-PrLA, format PrI/scFv/PrA-HRP. In general terms: An ELISA detects its analyte on a solid surface through an enzyme-linked reagent.
The target of assay [3] is IgG Control. As to the kind of experiment: ELISA screen GH2 (HHJ), table P1-IgG, format IgG/scFv/Etag-HRP.
Assay [4] deals with IgG Control. As to the kind of experiment: ELISA screen of scFv clones, plate panel 'IgG Control'.
Assay [5] has as its target ProL/A-HRP. In words: ELISA screen of scFv clones, plate panel 'ProL/A-HRP' (scFv quality check).
The target of assay [6] is Human CD26-Fc fusion protein (human). As to the kind of experiment: ELISA screen of scFv clones, plate panel 'CD26' (CD26-Fc fusion protein per paragraph 510).
For assay [7] the target is unchanged. As to the kind of experiment: ELISA screen, Plate2, panel CD26.
Assay [8] has as its target ProL/A-HRP. As to the kind of experiment: ELISA screen, Plate2, panel ProL/ProA-HRP.
The target of assay [9] is IgG Control. As to the kind of experiment: ELISA screen, Plate2, panel IgG.

Sequence of Human CD26-Fc fusion protein (human) (chain, as listed by the source): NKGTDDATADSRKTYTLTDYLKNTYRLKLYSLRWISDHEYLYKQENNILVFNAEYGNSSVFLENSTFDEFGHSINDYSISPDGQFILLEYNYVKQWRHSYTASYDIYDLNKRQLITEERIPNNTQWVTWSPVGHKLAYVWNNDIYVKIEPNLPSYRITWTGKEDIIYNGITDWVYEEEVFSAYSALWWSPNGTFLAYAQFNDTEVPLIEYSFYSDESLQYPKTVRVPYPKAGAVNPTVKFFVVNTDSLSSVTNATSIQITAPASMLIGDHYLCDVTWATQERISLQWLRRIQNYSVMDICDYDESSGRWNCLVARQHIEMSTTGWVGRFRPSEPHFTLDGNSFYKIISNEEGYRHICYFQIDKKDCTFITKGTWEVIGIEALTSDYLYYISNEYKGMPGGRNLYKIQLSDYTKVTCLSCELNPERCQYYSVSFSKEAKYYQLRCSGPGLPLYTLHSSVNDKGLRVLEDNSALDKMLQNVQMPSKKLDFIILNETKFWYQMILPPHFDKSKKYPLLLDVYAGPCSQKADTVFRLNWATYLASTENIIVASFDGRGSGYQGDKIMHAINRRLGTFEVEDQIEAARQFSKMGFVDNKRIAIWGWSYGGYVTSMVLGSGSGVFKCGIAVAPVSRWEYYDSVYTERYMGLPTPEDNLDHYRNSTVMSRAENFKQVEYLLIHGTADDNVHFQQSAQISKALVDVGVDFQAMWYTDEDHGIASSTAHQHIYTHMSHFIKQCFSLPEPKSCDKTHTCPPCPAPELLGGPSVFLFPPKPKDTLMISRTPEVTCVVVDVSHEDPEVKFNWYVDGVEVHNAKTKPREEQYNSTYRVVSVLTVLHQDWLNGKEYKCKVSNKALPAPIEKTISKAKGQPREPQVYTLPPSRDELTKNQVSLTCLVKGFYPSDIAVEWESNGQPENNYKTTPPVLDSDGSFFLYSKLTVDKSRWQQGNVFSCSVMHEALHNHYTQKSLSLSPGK

B1: CD26-03G scFv (scFv, part only; not given: VL-VH linker and detection tag, V domains shown, not shown: another chain or arm of the molecule; small tags and cut ends)
VL: DIQMTQSPSSLSASVGDRVTITCRASQDVSSSVAWYQQKPGKAPKLLISYPGWLYSGVPSRFSGSGSGTDFTLTISSLQPEDFATYYCQQFGDFPMTFGQGTKVEIK
VH: EVQLVESGGGLVQPGGSLRLSCAASGFTIGNYGIHWVRQAPGKGLEWVAWIGPYGGYTFYADSVKGRFTISADTSKNTAYLQMNSLRAEDTAVYYCARFNNLLWNGMDYWGQGTLVTVSS
For the molecule B1, the ELISA OD450 came to 3.08 in assay [1], 3.16 in the assay with ProL/A-HRP [2] and 0.05 with IgG Control [3].

B2: CD26-04A scFv (scFv, part only; not given: VL-VH linker and detection tag, V domains shown, not shown: another chain or arm of the molecule; small tags and cut ends)
VL: DIQMTQSPSSLSASVGDRVTITCRASQDVSGGVAWYQQKPGKAPKLLIYGTSGLYSGVPSRFSGSGSGTDFTLTISSLQPEDFATYYCQQGGDWPITFGQGTKVEIK
VH: EVQLVESGGGLVQPGGSLRLSCAASGFAINNYSIHWVRQAPGKGLEWVASIWPYGGFTSYADSVKGRFTISADTSKNTAYLQMNSLRAEDTAVYYCARFFSSYGDMDYWGQGTLVTVSS
As to B2, the ELISA OD450 in the assay with IgG Control [4] came out at 0.069; with ProL/A-HRP [5], 3.11; in [6], 2.92.

B3: CD26-01D scFv (scFv, part only; not given: VL-VH linker and detection tag, V domains shown, not shown: another chain or arm of the molecule; small tags and cut ends)
VL: DIQMTQSPSSLSASVGDRVTITCRASQDVNSNVAWYQQKPGKAPKLLIFGSGGLYSGVPSRFSGSGSGTDFTLTISSLQPEDFATYYCQQYSSYPLTFGQGTKVETK
VH: EVQLVESGGGLVQPGGSLRLSCAASGFTINDSYIHWVRQAPGKGLEWVAWIWPYGGFTYYADSVKGRFTISADTSKNTAYLQMNSLRAEDTAVYYCARFLGSSSIMDYWGQGTLVTVSS
For the molecule B3, the results for the ELISA OD450 (with IgG Control [4]; with ProL/A-HRP [5]; in [6]) were 0.05, 3.13 and 0.948, respectively.

B4: CD26-01G scFv (scFv, part only; not given: VL-VH linker and detection tag, V domains shown, not shown: another chain or arm of the molecule; small tags and cut ends)
VL: DIQMTQSPSSLSASVGDRVTITCRASQDVNNSVAWYQQKPGKAPKLLIFSPTGLYSGVPSRFSGSGSGTDFTLTISSLQPEDFATYYCQQYFDFPLTFGQGTKVEIK
VH: EVQLVESGGGLVQPGGSLRLSCAASGFTIGNYGIHWVRQAPGKGLEWVAWIGPSGGYTFYADSVKGRFTISADTSKNTAYLQMNSLRAEDTAVYYCARFDVHGFHGMDYWGQGTLVTVSS
In the case of B4, the ELISA OD450 in assay [7] is 2.5; in the assay with ProL/A-HRP [8], 2.74; with IgG Control [9], 0.047.

B5: CD26-03B scFv (scFv, part only; not given: VL-VH linker and detection tag, V domains shown, not shown: another chain or arm of the molecule; small tags and cut ends)
VL: DIQMTQSPSSLSASVGDRVTITCRASQDVYYFVAWYQQKPGKAPKLLISWPTGLYSGVPSRFSGSGSGTDFTLTISSLQPEDFATYYCQQYFSYPITFGQGTKVEIK
VH: EVQLVESGGGLVQPGGSLRLSCAASGFTIGNSYIHWVRQAPGKGLEWVAGIGPYWGFTSYADSVKGRFTISADTSKNTAYLQMNSLRAEDTAVYYCARFNGSSGFMDYWGQGTLVTVSS
Turning to B5, the figures for the ELISA OD450 with IgG Control [4] and with ProL/A-HRP [5] were 0.045 and 3.14, respectively.

B6: CD26-01F scFv (scFv, part only; not given: VL-VH linker and detection tag, V domains shown, not shown: another chain or arm of the molecule; small tags and cut ends)
VL: DIQMTQSPSSLSASVGDRVTITCRASQDVWGYVAWYQQKPGKAPKLLIFSSRSLYSGVPSRFSGSGSGTDFTLTISSLQPEDFATYYCQQYFNWPITFGQGTKVEIK
VH: EVQLVESGGGLVQPGGSLRLSCAASGFTISDYSIHWVRQAPGKGLEWVASIWPYGGFTSYADSVKGRFTISADTSKNTAYLQMNSLRAEDTAVYYCARFHSSSGDMDYWGQGTLVTVSS
For B6, the results for the ELISA OD450 (in assay [7]; with ProL/A-HRP [8]; in the assay with IgG Control [9]) were 1.29, 2.71 and 0.045, respectively.

B7: CD26-12D scFv (scFv, part only; not given: VL-VH linker and detection tag, V domains shown, not shown: another chain or arm of the molecule; small tags and cut ends)
VL: DIQMTQSPSSLSASVGDRVTITCRASQDVYSWVAWYQQKPGKAPKLLIYGPGSLYSGVPSRFSGSGSGTDFTLTISSLQPEDFATYYCQQYYNYPLTFGQGTKVEIK
VH: EVQLVESGGGLVQPGGSLRLSCAASGFTINSSYIHWVRQAPGKGLEWVAGIGPYWGFTSYADSVKGRFTISADTSKNTAYLQMNSLRAEDTAVYYCARFYSSYGFMDYWGQGTLVTVSS
For B7, the ELISA OD450 with IgG Control [4] is 0.051; with ProL/A-HRP [5] it was 3.05.

B8: CD26-10B scFv (scFv, part only; not given: VL-VH linker and detection tag, V domains shown, not shown: another chain or arm of the molecule; small tags and cut ends)
VL: DIQMTQSPSSLSASVGDRVTITCRASQDVWGYVAWYQQKPGKAPKLLIFASGALYSGVPSRFSGSGSGTDFTLTISSLQPEDFATYYCQQYFNWPITFGQGTKVEIK
VH: EVQLVESGGGLVQPGGSLRLSCAASGFTISDYSIHWVRQAPGKGLEWVASIWPYGGFTSYADSVKGRFTISADTSKNTAYLQMNSLRAEDTAVYYCARFHSSSGDMDYWGQGTLVTVSS
Regarding B8, the ELISA OD450 with IgG Control [4] worked out at 0.046; with ProL/A-HRP [5], 3.03; in assay [6] it was 0.68.

B9: CD26-04E scFv (scFv, part only; not given: VL-VH linker and detection tag, V domains shown, not shown: another chain or arm of the molecule; small tags and cut ends)
VL: DIQMTQSPSSLSASVGDRVTITCRASQDVNDGVAWYQQKPGKAPKLLIYWASYLYSGVPSRFSGSGSGTDFTLTISSLQPEDFATYYCQQSWNFPLTFGQGTKVEIK
VH: EVQLVESGGGLVQPGGSLRLSCAASGFTINDGFIHWVRQAPGKGLEWVAGIWPFGGSTSYADSVKGRFTISADTSKNTAYLQMNSLRAEDTAVYYCARFDVVDWGVMDYWGQGTLVTVSS
With B9, the ELISA OD450 in [1] amounted to 3.06; in the assay with ProL/A-HRP [2], 3.08; with IgG Control [3], 0.05.

B10: CD26-07H scFv (scFv, part only; not given: VL-VH linker and detection tag, V domains shown, not shown: another chain or arm of the molecule; small tags and cut ends)
VL: DIQMTQSPSSLSASVGDRVTITCKSNQNLLYSHGRTYLNWYQQKPGKAPKLLIFGTSHLYSGVPSRFSGSGSGTDFTLTISSLQPEDFATYYCYQGYHVPFTFGQGTKVEIK
VH: EVQLVESGGGLVQPGGSLRLSCKASGYTFARFGMYWVRQAPGKGLEWVAFIAPNHGYTFYADSVKGRFTISADTSKNTAYLQMNSLRAEDTAVYYCARGHWYHGYMDYWGQGTLVTVSS
Regarding B10, the results for the ELISA OD450 (in [7]; with ProL/A-HRP [8]; with IgG Control [9]) were 2.3, 2.73 and 0.047, respectively.

The values above are taken from patent publication US12497462.
